# Measured values from US20240254222A1 (Bayer, published 2024).
# Positions count from the first letter of the chain named.
# T1: human wild-type Sema3A of SEQ ID NO: 600, expressed by HEK293 cells (human, UniProt Q14563 22-771, limits assumed)
# T1 sequence: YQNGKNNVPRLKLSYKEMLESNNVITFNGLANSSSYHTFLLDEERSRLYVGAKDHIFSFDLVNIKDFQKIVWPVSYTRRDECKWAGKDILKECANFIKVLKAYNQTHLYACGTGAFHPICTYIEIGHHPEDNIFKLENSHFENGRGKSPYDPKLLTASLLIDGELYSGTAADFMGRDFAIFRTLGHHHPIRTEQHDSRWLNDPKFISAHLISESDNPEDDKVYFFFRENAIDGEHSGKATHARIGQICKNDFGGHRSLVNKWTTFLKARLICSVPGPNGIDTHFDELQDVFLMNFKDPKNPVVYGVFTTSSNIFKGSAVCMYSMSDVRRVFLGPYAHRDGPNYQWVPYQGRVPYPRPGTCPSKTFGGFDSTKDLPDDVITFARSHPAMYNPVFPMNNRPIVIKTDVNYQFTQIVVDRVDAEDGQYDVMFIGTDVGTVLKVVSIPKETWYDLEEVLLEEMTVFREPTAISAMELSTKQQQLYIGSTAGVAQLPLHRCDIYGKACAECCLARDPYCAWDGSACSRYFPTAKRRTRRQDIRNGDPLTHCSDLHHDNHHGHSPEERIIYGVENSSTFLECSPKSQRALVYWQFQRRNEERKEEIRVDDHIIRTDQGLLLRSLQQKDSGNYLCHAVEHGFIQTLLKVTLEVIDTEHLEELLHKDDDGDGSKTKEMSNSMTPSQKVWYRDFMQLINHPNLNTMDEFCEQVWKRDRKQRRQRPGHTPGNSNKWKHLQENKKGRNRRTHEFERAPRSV
# T2: Pig Semaphorin3A-Sema Domain, TPP-20176 (pig, UniProt Q63548 21-569 (rat entry))
# T2 construct: produced inhouse
# T2 chain: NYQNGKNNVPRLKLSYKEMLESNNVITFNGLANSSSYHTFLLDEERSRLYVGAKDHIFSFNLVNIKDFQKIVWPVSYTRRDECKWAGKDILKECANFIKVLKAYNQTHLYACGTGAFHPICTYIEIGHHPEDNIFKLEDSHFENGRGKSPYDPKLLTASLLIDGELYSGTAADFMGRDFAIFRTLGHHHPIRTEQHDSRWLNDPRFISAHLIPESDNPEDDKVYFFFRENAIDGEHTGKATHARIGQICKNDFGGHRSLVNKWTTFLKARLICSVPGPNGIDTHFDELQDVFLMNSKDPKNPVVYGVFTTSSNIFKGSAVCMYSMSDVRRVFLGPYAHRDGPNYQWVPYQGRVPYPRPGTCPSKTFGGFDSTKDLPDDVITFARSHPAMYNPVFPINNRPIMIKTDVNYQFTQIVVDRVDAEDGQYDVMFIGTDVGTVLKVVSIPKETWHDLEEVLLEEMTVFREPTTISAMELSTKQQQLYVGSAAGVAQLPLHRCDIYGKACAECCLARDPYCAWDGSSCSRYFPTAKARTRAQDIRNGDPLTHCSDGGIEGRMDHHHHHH
# B1: TPP-23298 (antibody, human IgG4 S228P, lambda, V domains shown)
# VH: EVQLLESGGGLVQPGGSLRLSCAASGFTFYSYAMSWVRQAPGKGLEWVSAIGTGGDTYYADSVKGRFTISRDNSKNTLYLQMNSLRAEDTAVYYCARRDDYTSRDAFDYWGQGTLVTVSS
# VL: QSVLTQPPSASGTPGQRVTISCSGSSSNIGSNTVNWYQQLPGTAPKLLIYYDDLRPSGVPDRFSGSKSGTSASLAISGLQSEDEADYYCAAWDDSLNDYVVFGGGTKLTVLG
# B2: TPP-17755 (antibody, human IgG1, lambda, V domains shown)
# VH: EVQLLESGGGLVQTGGSLRLSCAASGFTFSDYAMSWVRQAPGKGLEWVSWIYYDSGSKYYADSVKGRFTISRDNSKNTLYLQMNSLRAEDTAVYYCAKLNGDFDYWGQGTLVTVSS
# VL: QSVLTQPPSASGTPGQRVTISCSGSSSNIGNNDVSWYQQLPGTAPKLLIYADSHRPSGVPDRFSGSKSGTSASLAISGLRSEDEADYYCGAWDSSLSGYVFGGGTKLTVLG
# notes: also called Samsung; Samsung Prior Art F11
# B3: TPP-30788 (antibody, human IgG1, kappa, V domains shown)
# VH: EVQLVESGGGLVQPGGSLRLSCAASGFTFSSYYMSWVRQAPGKGLEWVSTIIKSGGYAYYPDSVKDRFTISRDNSKNTLYLQMSSLRAEDTAVYYCVRGGQGAMDYWGQGTTVTVSS
# VL: EIVLTQSPATLSLSPGERATLSCRASQSIGDYLHWYQQKPGQAPRLLIKYASQSISGIPARFSGSGSGTDFTLTITSLEPEDFAVYYCQQGYSFPYTFGGGTKLEIKR
# notes: prior art, WO 2020/225400; also called BI clone I; Böhringer (BI) Clone I
# B4: TPP-30790 (antibody, human IgG1, kappa, V domains shown)
# VH: B3 VH with P14L, S84N, R98K
# VL: B3 VL with K49Y, T76S
# notes: prior art, WO 2020/225400; also called BI clone III; Böhringer (BI) Clone III
# B5: TPP-30789 (antibody, human IgG1, kappa, V domains shown)
# VH: B3 VH with T28P
# VL: B3 VL
# notes: prior art, WO 2020/225400; also called BI clone II; Böhringer (BI) Clone II
# B6: TPP-30791 (antibody, human IgG1, kappa, V domains shown)
# VH: B3 VH with V12L, P14L, Y80N, S84N, R98K
# VL: B3 VL with T76S
# notes: prior art, WO 2020/225400; also called BI clone IV; Böhringer (BI) Clone IV
# B7: TPP-11489 (antibody, human IgG1, lambda)
# heavy: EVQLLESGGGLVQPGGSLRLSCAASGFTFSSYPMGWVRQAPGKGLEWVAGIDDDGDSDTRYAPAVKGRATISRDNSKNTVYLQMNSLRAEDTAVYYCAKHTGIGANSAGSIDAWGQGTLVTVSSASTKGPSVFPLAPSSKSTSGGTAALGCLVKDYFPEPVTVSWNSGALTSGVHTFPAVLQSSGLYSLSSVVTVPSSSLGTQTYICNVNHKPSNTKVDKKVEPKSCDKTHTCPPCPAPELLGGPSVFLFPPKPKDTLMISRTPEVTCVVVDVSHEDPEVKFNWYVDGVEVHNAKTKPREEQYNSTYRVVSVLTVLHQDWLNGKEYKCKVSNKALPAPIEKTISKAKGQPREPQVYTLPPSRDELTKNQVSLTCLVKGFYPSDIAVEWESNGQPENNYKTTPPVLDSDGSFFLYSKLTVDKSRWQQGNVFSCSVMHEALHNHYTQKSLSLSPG
# light: SYELTQPPSVSVSPGQTARITCSGGGSYTGSYYYGWYQQKPGQAPVTVIYYNNKRPSDIPERFSGSLSGTTNTLTISGVQAEDEADYYCGSADNSGDAFGTGTKVTVLGQPKAAPSVTLFPPSSEELQANKATLVCLISDFYPGAVTVAWKADSSPVKAGVETTTPSKQSNNKYAASSYLSLTPEQWKSHRSYSCQVTHEGSTVEKTVAPTECS
# notes: human IgG1; also called Chiome; Chiome Prior Art (hIgG1)
# B8: TPP-15370 (antibody, human IgG1, lambda, V domains shown)
# VH: B1 VH with Y30S, A33G, S35H, K64M, Y109V
# VL: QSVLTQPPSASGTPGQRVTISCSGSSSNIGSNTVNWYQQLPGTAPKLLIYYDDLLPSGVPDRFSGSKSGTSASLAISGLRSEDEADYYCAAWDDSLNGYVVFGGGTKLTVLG
# notes: human IgG1; also called IgG1, hit from panning; parental mAb
# B9: TPP-15374 (antibody, human IgG1, lambda, V domains shown)
# VH: EVQLLESGGGLVQPGGSLRLSCAASGFTFSSYEMNWVRQAPGKGLEWVSGISWNSGSIGYADSVKGRFTISRDNSKNTLYLQMNSLRAEDTAVYYCARSGYSSSWFDPDFDYWGQGTLVTVSS
# VL: QSVLTQPPSASGTPGQRVTISCTGSSSNIGAGYDVHWYQQLPGTAPKLLIYGNSNRPSGVPDRFSGSKSGTSASLAISGLRSEDEADYYCSSYAGSNPYVVFGGGTKLTVLG
# notes: as for B8
# Molecular target: T1, human wild-type Sema3A of SEQ ID NO: …
# Assay: cell-based or functional assay
row,Binder,"EC50 (pM), HUVEC repulsion assay, second experiment [pM]"
1,B1,54
2,B2,2790
3,B3,104
4,B4,121
5,B5,165
6,B6,221
7,B7,> 20000

# Molecular target: T2, Pig Semaphorin3A-Sema Domain, TPP-20176
# Assay: SPR, captured antibody, Sema3A domain analyte
# In short: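 Antibodies captured on anti-human Fc surface, monovalent Sema3A domain (human, mouse, cyno, rat, dog, pig) injected at 0.024-3.125 nM, multi-cycle kinetics, 25° C, HBS P+ with 300 mM NaCl, CaCl₂, MgCl₂, BSA. Double-referenced sensorgrams fitted 1:1 Langmuir; binding activity = experimental RMax / theoretical RMax.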
row,Binder,Binding Activity [%]
1,B1,107
2,B8,111
3,B2,60
4,B3,107
5,B4,92
6,B5,103
7,B6,105
8,B7,77
9,B9,103

# Molecular target: T3, Human Semaphorin3A-Fc (R&D Systems), TPP-13211 (human)
# T3 construct: R&D Systems 1250-S3; also called recombinant human Sema3A-Fc chimera
# T3 sequence (chain, as listed by the source limits assumed): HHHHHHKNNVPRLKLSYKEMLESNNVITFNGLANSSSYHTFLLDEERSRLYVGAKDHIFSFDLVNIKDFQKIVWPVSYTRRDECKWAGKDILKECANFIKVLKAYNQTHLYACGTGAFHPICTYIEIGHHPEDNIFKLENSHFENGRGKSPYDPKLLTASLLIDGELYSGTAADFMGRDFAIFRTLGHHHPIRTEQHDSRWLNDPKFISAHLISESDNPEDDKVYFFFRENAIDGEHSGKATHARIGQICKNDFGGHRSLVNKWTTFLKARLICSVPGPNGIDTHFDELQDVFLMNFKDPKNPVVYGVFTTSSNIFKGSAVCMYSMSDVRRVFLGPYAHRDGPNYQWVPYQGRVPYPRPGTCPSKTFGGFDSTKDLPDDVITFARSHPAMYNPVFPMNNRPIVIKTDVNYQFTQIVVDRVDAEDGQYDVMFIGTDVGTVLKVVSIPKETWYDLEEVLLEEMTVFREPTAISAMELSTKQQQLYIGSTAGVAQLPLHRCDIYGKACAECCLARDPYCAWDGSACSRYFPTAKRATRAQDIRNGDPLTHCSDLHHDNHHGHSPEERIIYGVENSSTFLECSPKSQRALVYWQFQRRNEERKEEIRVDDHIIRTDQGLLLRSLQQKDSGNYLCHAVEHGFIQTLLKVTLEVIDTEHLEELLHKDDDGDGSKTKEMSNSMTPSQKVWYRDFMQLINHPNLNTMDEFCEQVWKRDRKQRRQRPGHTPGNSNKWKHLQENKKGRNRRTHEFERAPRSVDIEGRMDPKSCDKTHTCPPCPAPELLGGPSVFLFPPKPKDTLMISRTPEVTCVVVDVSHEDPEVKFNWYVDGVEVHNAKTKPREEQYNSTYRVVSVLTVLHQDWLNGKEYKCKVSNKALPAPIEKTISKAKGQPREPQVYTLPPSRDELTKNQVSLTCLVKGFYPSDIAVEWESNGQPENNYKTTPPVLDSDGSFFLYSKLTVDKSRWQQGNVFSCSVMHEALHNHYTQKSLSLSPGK
# Assay: ELISA, signal on TPP-13211 divided by signal on TPP-19068
# Excerpt: In the in vivo situation Sema3A exists in both forms side by side.
row,Binder,Ratio ELISA binding TPP-13211/TPP-19068
1,B1,0.66
2,B3,0.19
3,B4,0.19
4,B5,0.2
5,B6,0.21
